Measured values as given in ChEMBL document CHEMBL3525949, “Role of organic anion-transporting polypeptides for cellular mesalazine (5-aminosalicylic acid) uptake” (Drug Metab Dispos, 2011).

Experiments:
[1] = substrate: Nc1ccc(O)c(C(=O)O)c1; experiment: Drug uptake in human OATP1B1 expressed HEK293 cells assessed as net uptake; type: ADME, cell-based
[2] = substrate: Nc1ccc(O)c(C(=O)O)c1; experiment: Drug uptake in human OATP2B1 expressed HEK293 cells assessed as net uptake; type: ADME, cell-based

| Protein | Km [1] [µM] | Vmax [1] [µmol/min] | Km [2] [µM] | Vmax [2] [µmol/min] |
| --- | --- | --- | --- | --- |
| Solute carrier organic anion transporter family member 1B1 (Homo sapiens) (protein) MDQNQHLNKTAEAQPSENKKTRYCNGLKMFLAALSLSFIAKTLGAIIMKSSIIHIERRFEISSSLVGFIDGSFEIGNLLVIVFVSYFGSKLHRPKLIGIGCFIMGIGGVLTALPHFFMGYYRYSKETNINSSENSTSTLSTCLINQILSLNRASPEIVGKGCLKESGSYMWIYVFMGNMLRGIGETPIVPLGLSYIDDFAKEGHSSLYLGILNAIAMIGPIIGFTLGSLFSKMYVDIGYVDLSTIRITPTDSRWVGAWWLNFLVSGLFSIISSIPFFFLPQTPNKPQKERKASLSLHVLETNDEKDQTANLTNQGKNITKNVTGFFQSFKSILTNPLYVMFVLLTLLQVSSYIGAFTYVFKYVEQQYGQPSSKANILLGVITIPIFASGMFLGGYIIKKFKLNTVGIAKFSCFTAVMSLSFYLLYFFILCENKSVAGLTMTYDGNNPVTSHRDVPLSYCNSDCNCDESQWEPVCGNNGITYISPCLAGCKSSSGNKKPIVFYNCSCLEVTGLQNRNYSAHLGECPRDDACTRKFYFFVAIQVLNLFFSALGGTSHVMLIVKIVQPELKSLALGFHSMVIRALGGILAPIYFGALIDTTCIKWSTNNCGTRGSCRTYNSTSFSRVYLGLSSMLRVSSLVLYIILIYAMKKKYQEKDINASENGSVMDEANLESLNKNKHFVPSAGADSETHC | 55.1 | 2.83e-05 |  |  |
| Solute carrier organic anion transporter family member 2B1 (Homo sapiens) (protein) MGPRIGPAGEVPQVPDKETKATMGTENTPGGKASPDPQDVRPSVFHNIKLFVLCHSLLQLAQLMISGYLKSSISTVEKRFGLSSQTSGLLASFNEVGNTALIVFVSYFGSRVHRPRMIGYGAILVALAGLLMTLPHFISEPYRYDNTSPEDMPQDFKASLCLPTTSAPASAPSNGNCSSYTETQHLSVVGIMFVAQTLLGVGGVPIQPFGISYIDDFAHNSNSPLYLGILFAVTMMGPGLAFGLGSLMLRLYVDINQMPEGGISLTIKDPRWVGAWWLGFLIAAGAVALAAIPYFFFPKEMPKEKRELQFRRKVLAVTDSPARKGKDSPSKQSPGESTKKQDGLVQIAPNLTVIQFIKVFPRVLLQTLRHPIFLLVVLSQVCLSSMAAGMATFLPKFLERQFSITASYANLLIGCLSFPSVIVGIVVGGVLVKRLHLGPVGCGALCLLGMLLCLFFSLPLFFIGCSSHQIAGITHQTSAHPGLELSPSCMEACSCPLDGFNPVCDPSTRVEYITPCHAGCSSWVVQDALDNSQVFYTNCSCVVEGNPVLAGSCDSTCSHLVVPFLLLVSLGSALACLTHTPSFMLILRGVKKEDKTLAVGIQFMFLRILAWMPSPVIHGSAIDTTCVHWALSCGRRAVCRYYNNDLLRNRFIGLQFFFKTGSVICFALVLAVLRQQDKEARTKESRSSPAVEQQLLVSGPGKKPEDSRV |  |  | 189 | 3.72e-05 |
